# Reference: paper doi:10.1101/2022.09.05.506711, “New structures of Class II Fructose-1,6-Bisphosphatase from Francisella tularensis suggest a novel catalytic mechanism for the entire Class” (bioRxiv, 2022)
# B1: Mycobacterium tuberculosis class II fructose-1,6-bisphosphatase (enzyme)
# chain: MELVRVTEAGAMAAGRWVGRGDKEGGDGAAVDAMRELVNSVSMRGVVVIGEGEKDHAPMLYNGEEVGNGDGPECDFAVDPIDGTTLMSKGMTNAISVLAVADRGTMFDPSAVFYMNKIAVGPDAAHVLDITAPISENIRAVAKVKDLSVRDMTVCILDRPRHAQLIHDVRATGARIRLITDGDVAGAISACRPHSGTDLLAGIGGTPEGIIAAAAIRCMGGAIQAQLAPRDDAERRKALEAGYDLNQVLTTEDLVSGENVFFCATGVTDGDLLKGVRYYPGGCTTHSIVMRSKSGTVRMIEAYHRLSKLNEYSAIDFTGDSSAVYPLP
# notes: also called MtFBPaseII; MtFBPase
# Target: the molecule itself
# Test: crystal structure
protein,measurement,value
B1,stoichiometry N,4
